Values of other authors in patent US7101894B2 (priority 2001, dated 2006).

Biological target: CMV US28 (Human cytomegalovirus, UniProt P69332)
Settings: binding of Fractalkine to US28

CMV US28, sequence (P69332 whole entry): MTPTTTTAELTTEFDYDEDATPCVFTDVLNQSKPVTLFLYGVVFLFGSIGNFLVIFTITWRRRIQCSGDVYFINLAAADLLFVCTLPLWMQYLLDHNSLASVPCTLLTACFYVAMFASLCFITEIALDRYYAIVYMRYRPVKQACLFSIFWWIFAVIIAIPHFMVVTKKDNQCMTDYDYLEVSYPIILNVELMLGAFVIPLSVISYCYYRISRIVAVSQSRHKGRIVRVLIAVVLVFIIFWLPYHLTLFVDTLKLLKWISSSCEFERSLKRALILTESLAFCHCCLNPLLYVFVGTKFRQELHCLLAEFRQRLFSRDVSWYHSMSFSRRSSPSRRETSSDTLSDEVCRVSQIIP

B1: Fractalkine: the CX3C chemokine, binds US28; used 125I-labeled as radioligand (protein, UniProt P78423 25-397, looked up)
Fractalkine: QHHGVTKCNITCSKMTSKIPVALLIHYQQNQASCGKRAIILETRQHRLFCADPKEQWVKDAMQHLDRQAAALTRNGGTFEKQIGEVKPRTTPAAGGMDESVVLEPEATGESSSLEPTPSSQEAQRALGTSPELPTGVTGSSGTRLPPTPKAQDGGPVGTELFRVPPVSTAATWQSSAPHQPGPSLWAEAKTSEAPSTQDPSTQASTASSPAPEENAPSEGQRVWGQGQSPRPENSLEREEMGPVPAHTDAFQDWGPGSMAHVSVVPVSSEGTPSREPVASGSWTPKAEEPIHATMDPQRLGVLITPVPDAQAATRRQAVGLLAFLGLLFCLGVAMFTYQSLQGCPRKMAGEMAEGLRYIPRSCGSNSYVLVPV
modifications: 125I label
notes: used 125I-labeled as radioligand
  Ki: ~0.05 nM
